Results from paper PMC3582566.

Biological target: S. mutans VicK (aa31-450), entire intracellular region (S. mutans)
Assay: SEC-MALS; VicK at ~4 mg/ml resolved on a size exclusion column (Shodex KW-802.5) in 50 mM HEPES (pH 7.0), 200 mM Na2SO4 at 25°C; DAWN HELEOS II laser photometer; BSA as control

Question: Which stoichiometry N does the source give for “S. mutans VicK (aa31-450), entire intracellular region (domain or fragment)” here?
Answer: The stoichiometry N was 2.
